# Measured values reported in doi:10.1101/2021.08.22.457263, “Reconstitution of surface lipoprotein translocation reveals Slam as an outer membrane translocon in Gram-negative bacteria” (bioRxiv, 2021).
# T1: M. catarrhalis transferrin binding protein B with C-terminal flag-tag (Mcat TbpB-flag) (Moraxella catarrhalis, UniProt P0DTW7 21-706, lipidated)
# T1 sequence: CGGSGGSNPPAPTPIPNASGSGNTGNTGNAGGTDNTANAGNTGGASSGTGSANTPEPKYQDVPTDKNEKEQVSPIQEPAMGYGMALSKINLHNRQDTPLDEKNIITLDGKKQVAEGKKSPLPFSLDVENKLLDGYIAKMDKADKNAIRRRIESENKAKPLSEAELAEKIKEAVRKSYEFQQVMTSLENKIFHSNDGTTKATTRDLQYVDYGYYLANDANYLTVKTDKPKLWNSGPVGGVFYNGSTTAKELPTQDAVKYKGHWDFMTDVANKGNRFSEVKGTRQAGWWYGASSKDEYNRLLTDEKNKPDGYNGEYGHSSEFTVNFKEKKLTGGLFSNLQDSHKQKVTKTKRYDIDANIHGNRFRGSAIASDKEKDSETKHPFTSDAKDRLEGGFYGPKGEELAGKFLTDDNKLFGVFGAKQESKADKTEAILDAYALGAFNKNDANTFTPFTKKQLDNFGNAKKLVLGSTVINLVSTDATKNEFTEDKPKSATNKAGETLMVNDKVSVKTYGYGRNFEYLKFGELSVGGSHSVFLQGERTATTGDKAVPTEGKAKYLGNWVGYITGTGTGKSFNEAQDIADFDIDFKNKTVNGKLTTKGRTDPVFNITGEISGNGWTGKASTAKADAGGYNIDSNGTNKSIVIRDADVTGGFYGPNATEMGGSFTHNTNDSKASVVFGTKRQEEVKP
# B1: His-tagged E. coli Skp, purified (natural protein, UniProt P0AEU7 21-161, looked up)
# chain: ADKIAIVNMGSLFQQVAQKTGVSNTLENEFKGRASELQRMETDLQAKMKKLQSMKAGSDRTKLEKDVMAQRQTFAQKAQAFEQDRARRSNEERGKLVTRIQTAVKSVANSQDIDLVVDANAVAYNSSDVKDITADVLKQVK
# Molecular target: T1, M. catarrhalis transferrin binding …
# Test: cell-based or functional assay
binder,measurement,value
B1,"protection of urea-unfolded purified TbpB from proteinase K with empty liposomes, Skp added against SurA added",2 fold
